Data from patent US20190083587A1 (Novo Nordisk, published 2019).

B1: hTLT-1 ECD-His (receptor)
chain: QGIVGSLPEVLQAPVGSSILVQCHYRLQDVKAQKVWCRFLPEGCQPLVSSAVDRRAPAGRRTFLTDLGGGLLQVEMVTLQEEDAGEYGCMVDGARGPQILHRVSLNILPPEEEEETHKIGSLAENAFSDPAGSANPLEPSQDEKSIPHHHHHH
notes: Extracellular domain of human TLT-1 with C-terminal His-6 tag; the range 16-168 is computed from these; also called TLT-1-His; His tagged human TLT1

Legend:
human fibrinogen = target: T1, human fibrinogen (human, UniProt P02671 20-629; P02675 31-491; P02679 27-437, limits assumed); test: SPR Biacore T100, TLT-1 immobilised on CM5, fibrinogen 200-0.2 nM as analyte
T1 construct: the chain composition (two each of alpha, beta, gamma) is from general knowledge; also called HCI-0150R Haematologic technologies
T1 sequence (looked up) 1: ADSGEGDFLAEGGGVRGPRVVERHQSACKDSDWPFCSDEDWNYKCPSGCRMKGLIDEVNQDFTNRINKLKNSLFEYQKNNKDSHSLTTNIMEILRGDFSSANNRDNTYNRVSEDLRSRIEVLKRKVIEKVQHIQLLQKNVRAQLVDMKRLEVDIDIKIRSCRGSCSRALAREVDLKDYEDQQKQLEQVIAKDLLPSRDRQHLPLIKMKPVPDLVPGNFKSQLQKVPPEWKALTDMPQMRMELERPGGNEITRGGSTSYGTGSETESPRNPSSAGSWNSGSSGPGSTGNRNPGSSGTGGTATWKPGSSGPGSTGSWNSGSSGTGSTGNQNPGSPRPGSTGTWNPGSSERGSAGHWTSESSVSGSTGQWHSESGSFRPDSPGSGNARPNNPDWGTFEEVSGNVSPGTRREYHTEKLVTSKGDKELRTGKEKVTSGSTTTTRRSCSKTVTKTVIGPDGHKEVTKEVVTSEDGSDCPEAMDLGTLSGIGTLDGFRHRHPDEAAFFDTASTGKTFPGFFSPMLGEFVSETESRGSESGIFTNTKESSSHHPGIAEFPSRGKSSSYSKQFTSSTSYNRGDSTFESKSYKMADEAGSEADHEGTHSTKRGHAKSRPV
T1 sequence (looked up) 2: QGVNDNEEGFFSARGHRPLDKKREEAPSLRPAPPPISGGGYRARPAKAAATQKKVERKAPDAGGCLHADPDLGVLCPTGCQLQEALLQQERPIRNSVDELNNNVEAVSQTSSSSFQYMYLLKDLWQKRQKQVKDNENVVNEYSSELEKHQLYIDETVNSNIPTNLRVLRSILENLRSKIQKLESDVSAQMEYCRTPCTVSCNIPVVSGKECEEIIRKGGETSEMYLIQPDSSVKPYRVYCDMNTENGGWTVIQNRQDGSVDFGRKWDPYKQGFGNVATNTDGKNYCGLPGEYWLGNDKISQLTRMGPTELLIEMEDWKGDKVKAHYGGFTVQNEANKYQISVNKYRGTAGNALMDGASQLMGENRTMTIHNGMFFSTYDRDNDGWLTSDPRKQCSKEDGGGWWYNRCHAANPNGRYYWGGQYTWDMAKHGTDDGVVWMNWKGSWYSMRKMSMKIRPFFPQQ
T1 sequence (looked up) 3: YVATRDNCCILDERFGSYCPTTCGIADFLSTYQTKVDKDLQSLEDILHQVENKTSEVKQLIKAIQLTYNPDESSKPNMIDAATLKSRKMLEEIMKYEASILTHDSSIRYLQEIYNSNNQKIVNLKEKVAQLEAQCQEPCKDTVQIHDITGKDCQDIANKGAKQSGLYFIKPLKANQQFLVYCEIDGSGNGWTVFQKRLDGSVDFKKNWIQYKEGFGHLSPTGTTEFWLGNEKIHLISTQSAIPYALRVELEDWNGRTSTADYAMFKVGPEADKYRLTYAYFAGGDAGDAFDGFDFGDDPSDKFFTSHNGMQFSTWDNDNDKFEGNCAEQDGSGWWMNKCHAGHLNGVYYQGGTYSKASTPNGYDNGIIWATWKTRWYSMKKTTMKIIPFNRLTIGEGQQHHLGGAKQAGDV
Protocol: Human TLT-1 was immobilised to a level of approx 1000 RU on a CM5 chip (50 μg/ml diluted in Na-acetate, pH 4.0) using the standard procedure recommended by the supplier. Four-fold dilutions of human fibrinogen from 200 nM to 0.2 nM were tested for binding to the immobilized TLT-1. Running and dilution buffer: 10 mM HEPES, 150 mM, 0.005% p20, pH 7.4. Regeneration was obtained by 10 mM Glycine, pH 1.7.
Determination of kinetic and binding constants (kₒₙ, koff, KD) was obtained assuming a 1:1 interaction of TLT-1 and fibrinogen using the Biacore T100 evaluation software (Table 11).

FVIIa-Fab1029 = target: T2, FVIIa-Fab1029 (human, UniProt P08709 61-466, linker attached as sialic acid derivative to an N-linked glycan (ST3Gal-III); gamma-carboxylated Glu in the Gla domain; unpaired hinge Cys (YGPPC) coupled by maleimide to the 10 kDa PEG linker); test: SPR Biacore T100, TLT-1 immobilised on CM5, analyte 20-0.3 nM
T2 construct: FVIIa is the two-chain form cleaved between Arg152 and Ile153; also called conjugate of anti TLT-1-FAB fragment (Fab0084) to FVIIa, 10 kDa PEG linker
T2 sequence (P08709 61-466 limits assumed): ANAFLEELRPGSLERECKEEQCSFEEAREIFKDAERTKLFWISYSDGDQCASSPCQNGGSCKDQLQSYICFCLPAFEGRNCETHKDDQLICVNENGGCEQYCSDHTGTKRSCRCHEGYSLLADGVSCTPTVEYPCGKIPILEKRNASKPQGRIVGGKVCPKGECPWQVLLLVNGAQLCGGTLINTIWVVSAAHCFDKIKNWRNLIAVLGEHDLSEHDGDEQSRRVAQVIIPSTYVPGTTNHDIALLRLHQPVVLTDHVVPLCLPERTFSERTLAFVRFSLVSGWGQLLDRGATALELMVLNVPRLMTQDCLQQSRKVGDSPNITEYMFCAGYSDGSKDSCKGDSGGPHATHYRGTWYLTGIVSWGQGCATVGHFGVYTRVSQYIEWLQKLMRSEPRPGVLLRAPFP
Protocol: TLT-1 was immobilized directly to a CM5 chip to a level of approx 2000 RU (50 ug/ml diluted in Na-acetate, pH 4.0) using the standard procedure recommended by the supplier and reagents provided in Table 16. Two-fold dilutions of FVIIa-Fab1029 and FIX-Fab0135 from 20 nM to 0.3 nM were tested for binding to TLT-1. Running and dilution buffer: 10 mM HEPES, 150 mM, 0.005% p20, pH 7.4. Regeneration was obtained by 10 mM Glycine, pH 1.7. Determination of kinetic and binding constants (kₒₙ, koff, KD) was obtained assuming a 1:1 interaction of TLT-1 and FVIIa-Fab1029 or FIX-Fab0135 using the Biacore T100 evaluation software.

FVIIa-Fab1001 = target: T3, FVIIa-Fab1001 (human, UniProt P08709 61-466, linker attached as sialic acid derivative to an N-linked glycan (ST3Gal-III); gamma-carboxylated Glu in the Gla domain; unpaired hinge Cys (YGPPC) coupled by maleimide to the 3 kDa PEG linker); test: SPR Biacore T200, His-tagged TLT-1 captured via anti 6xHis mAb, analyte 29.29-0.45 nM, 25 C
T3 construct: FVIIa is the two-chain form; also called conjugate of anti TLT-1-FAB fragment (Fab0084) to FVIIa via a 3 kDa PEG linker
T3 sequence (P08709 61-466 limits assumed): as above
Protocol: Method: An anti 6×his antibody was immobilised to a level of approx 9000 RU on a CM5 chip (0.5 mg/ml diluted in Na-acetate, pH 5.0) using the standard procedure recommended by the supplier. Human his-tagged TLT-1 in a concentration of 100 ng/ml was used as ligand. FVIIa-Fab1001 in two-fold dilutions from 29.29 nM to 0.45 nM was used as analytes. The running and dilution buffer was made from: 10 mM HEPES, 150 mM NaCl, 3 mM EDTA, 0.005% p20, pH 7.4. Regeneration was obtained by 3 M MgCl₂. The experiment was run at 25 degree Celsius. Determination of kinetic and binding constants (kₒₙ, koff, KD) was obtained assuming a 1:1 interaction of TLT1 and FVIIa-Fab1001 using the Biacore T200 evaluation software (Table 19).

hTLT-1 ECD-His = target: B1; test: SPR Biacore, TLT-1-His captured via anti-His mAb, Fab as analyte
Protocol: Method: The mAbs of interest were either immobilized directly to a CM5 chip or by capture via a human Fc capture mAb immobilized to a CM5 chip, while TLT-1-His was immobilized by capture via an anti-His mAb CM5 chip for analysis of Fabs.
TLT-1-His capture via anti-His mAb (R&D #MAB050): The anti-His mAb was immobilised to approx 9.000 RU. The TLT-1-His was added to a level of approx 30-40 RU (10 μg/ml diluted in 10 mM Hepes, 150 mM NaCl, 3 mM EDTA, 0.005% Tween-20) using the standard procedure recommended by the supplier. 8-fold dilutions of Fabs from 3 to 0.047 μg/ml were tested for binding to the TLT-1-His. Running and dilution buffer: 10 mM Hepes, 150 mM NaCl, 3 mM EDTA, 0.005% Tween-20. Regeneration was obtained by 3 M MgCl₂.

Row | Binder | Kd (human fibrinogen) [nM] | koff (human fibrinogen) [s⁻¹] | kon (human fibrinogen) [M⁻¹ s⁻¹] | Kd (FVIIa-Fab1029) [nM] | koff (FVIIa-Fab1029) [s⁻¹] | kon (FVIIa-Fab1029) [M⁻¹ s⁻¹] | Kd (FVIIa-Fab1001) [nM] | koff (FVIIa-Fab1001) [s⁻¹] | kon (FVIIa-Fab1001) [M⁻¹ s⁻¹] | Kd (hTLT-1 ECD-His) [nM] | koff (hTLT-1 ECD-His) [s⁻¹] | kon (hTLT-1 ECD-His) [M⁻¹ s⁻¹]
1 | B1 | 94 | 0.000392 | 4170 | 18.3 | 0.00726 | 397000 | 3.99 | 0.00319 | 801000 |  |  | 
2 | Fab0003 (Fab, VH-CH1 (human IgG4) with partial hinge YGPPC; light chain with HPC4 tag; Entries may include signal peptides; also called antiTLT-1 0003Fab-YGPPC; (0052LC-HPC4)) heavy: QVQLQQSGAEPMKPGASVKISCKATGYTFSSHWIEWIKQRPGHGLEWIGEILPGSGNTNYNEKFKGKATFTADTSSNTAYMQLSSLTSEDSAVYYCARGYYGLNYDWYFDVWGAGTTVTVSSASTKGPSVFPLAPCSRSTSESTAALGCLVKDYFPEPVTVSWNSGALTSGVHTFPAVLQSSGLYSLSSVVTVPSSSLGTKTYTCNVDHKPSNTKVDKRVESKYGPPC light: DIQMTQTTSSLSASLGDRVTISCRASQDISNYLNWYQQKPDGTVKLLIFYTSRLHSGVPSRFSGSGSGTDYSLTISNLEPEDIATYYCQQDTKLPYTFGGGTKLEMKRTVAAPSVFIFPPSDEQLKSGTASVVCLLNNFYPREAKVQWKVDNALQSGNSQESVTEQDSKDSTYSLSSTLTLSKADYEKHKVYACEVTHQGLSSPVTKSFNRGECEDQVDPRLIDGK |  |  |  |  |  |  |  |  |  | 5.2 | 0.00279 | 536000
3 | Fab0004 (Fab, VH-CH1 (human IgG4) with partial hinge YGPPC; light chain with HPC4 tag; Entries may include signal peptides; also called antiTLT-1 0004Fab-YGPPC; (0023LC-HPC4)) heavy: EVRLVESGGGLVQPGGSLKLSCATSGFTFSDYFMYWIRQTPEKRLEWVAYISNGGDSSSYPDTVKGRFTISRDNAKNTLYLQMSRLKSEDTAMYYCATNKNWDDYYDMDYWGQGTSVTVSSASTKGPSVFPLAPCSRSTSESTAALGCLVKDYFPEPVTVSWNSGALTSGVHTFPAVLQSSGLYSLSSVVTVPSSSLGTKTYTCNVDHKPSNTKVDKRVESKYGPPC light: DIVVSQSPSSLAVSAGEKVTMSCKSSQSLLNSRTRKNYLAWYQQKPGQSPKLLIYWASTRESGVPDRFTGSGSGTDFTLTISSVQAEDLAVYYCKQSYNLLTFGAGTKLELKRTVAAPSVFIFPPSDEQLKSGTASVVCLLNNFYPREAKVQWKVDNALQSGNSQESVTEQDSKDSTYSLSSTLTLSKADYEKHKVYACEVTHQGLSSPVTKSFNRGECEDQVDPRLIDGK |  |  |  |  |  |  |  |  |  | 1.7 | 0.00195 | 1.15e+06
4 | Fab0084 (Fab, VH-CH1 (human IgG4) with partial hinge YGPPC (one free Cys); light chain with HPC4 tag; the ends of the ranges are computed; also called antiTLT-1 0084Fab-YGPPC; (0012VH.T60N-CH1-YGPPC)) heavy: EVKLLESGGGLVQPGGSLKLSCAASGFDFSRYWMTWVRQAPGKGLEWIGEINPDSSTINYNPSLKDKFIISRDNAKNTLYLQMSEVRSEDTALYYCASGVFTSWGQGTLVTVSAASTKGPSVFPLAPCSRSTSESTAALGCLVKDYFPEPVTVSWNSGALTSGVHTFPAVLQSSGLYSLSSVVTVPSSSLGTKTYTCNVDHKPSNTKVDKRVESKYGPPC light: DVVMTQTPLSLPVSLGDQASISCRSSQSLVHRNGNTYFHWALQKPGQSPKLLIYKVSNRFSGVPDRFSGSGSGTDFTLKISRVEAEDLGVYFCSQSTHVPYTFGGGTKLEIKRTVAAPSVFIFPPSDEQLKSGTASVVCLLNNFYPREAKVQWKVDNALQSGNSQESVTEQDSKDSTYSLSSTLTLSKADYEKHKVYACEVTHQGLSSPVTKSFNRGECEDQVDPRLIDGK |  |  |  |  |  |  |  |  |  | 0.99 | 0.00524 | 5.31e+06
5 | Fab0074 (Fab, VH-CH1 (human IgG4) with partial hinge YGPPC (one free Cys); light chain with HPC4 tag; Entries may include signal peptides; also called antiTLT-1 0074Fab-YGPPC; (0051LC-HPC4)) heavy: QVQLEQSGAELVRPGVSVKISCKGSGYTFTDYSMHWVKQSHAKSLEWIGVISTYYGDVRYNQKFKGKATMTVDKSSSTAYMALARLTSEDSAIYYCARAPMITTGAWFAYWGQGTLVTVSAASTKGPSVFPLAPCSRSTSESTAALGCLVKDYFPEPVTVSWNSGALTSGVHTFPAVLQSSGLYSLSSVVTVPSSSLGTKTYTCNVDHKPSNTKVDKRVESKYGPPC light: SIVMTQTPKFLLVSAGDRVTITCKASQSVSNDVAWYQQKPGQSPKLLINYASSRYTGIPDRFTGSGYGTDFTFTISTVQAEDLAVYFCQQDYSSPYTFGGGTKLEIERTVAAPSVFIFPPSDEQLKSGTASVVCLLNNFYPREAKVQWKVDNALQSGNSQESVTEQDSKDSTYSLSSTLTLSKADYEKHKVYACEVTHQGLSSPVTKSFNRGECEDQVDPRLIDGK |  |  |  |  |  |  |  |  |  | 2.38 | 0.00798 | 3.35e+06
